According to US20180155451A1 (published 2018):

B1: GpH7-A5/GpH7-B3 variant S298_04F/GpL16-k0 (antibody, human IgG1, kappa)
heavy 1: not shown
heavy 2: not shown
light: DIVMTQSPLSLPVTPGEPASISCQASESLVHSNRNTYLHWYLQKPGQSPQLLIYKVSNRFSGVPDRFSGSGSGTDFTLKISRVEAEDVGVYYCSQNTHVPPTFGQGTKVEIERTVAAPSVFIFPPSDEQLKSGTASVVCLLNNFYPREAKVQWKVDNALQSGNSQESVTEQDSKDSTYSLSSTLTLSKADYEKHKVYACEVTHQGLSSPVTKSFNRGEC
notes: mutation in one H chain only; also called He Ab S298_04F; S298F
B2: GpH7-A5/GpH7-B3 variant S298_15Y/GpL16-k0 (antibody, human IgG1, kappa)
heavy 1: not shown
heavy 2: not shown
light: DIVMTQSPLSLPVTPGEPASISCQASESLVHSNRNTYLHWYLQKPGQSPQLLIYKVSNRFSGVPDRFSGSGSGTDFTLKISRVEAEDVGVYYCSQNTHVPPTFGQGTKVEIERTVAAPSVFIFPPSDEQLKSGTASVVCLLNNFYPREAKVQWKVDNALQSGNSQESVTEQDSKDSTYSLSSTLTLSKADYEKHKVYACEVTHQGLSSPVTKSFNRGEC
notes: mutation in one H chain only; also called He Ab S298_15Y; S298Y
B3: GpH7-A5/GpH7-B3 variant S298_06M/GpL16-k0 (antibody, human IgG1, kappa)
heavy 1: not shown
heavy 2: not shown
light: DIVMTQSPLSLPVTPGEPASISCQASESLVHSNRNTYLHWYLQKPGQSPQLLIYKVSNRFSGVPDRFSGSGSGTDFTLKISRVEAEDVGVYYCSQNTHVPPTFGQGTKVEIERTVAAPSVFIFPPSDEQLKSGTASVVCLLNNFYPREAKVQWKVDNALQSGNSQESVTEQDSKDSTYSLSSTLTLSKADYEKHKVYACEVTHQGLSSPVTKSFNRGEC
notes: mutation in one H chain only; also called He Ab S298_06M; S298M
B4: GpH7-A5/GpH7-B3 variant S298_10E/GpL16-k0 (antibody, human IgG1, kappa)
heavy 1: not shown
heavy 2: not shown
light: DIVMTQSPLSLPVTPGEPASISCQASESLVHSNRNTYLHWYLQKPGQSPQLLIYKVSNRFSGVPDRFSGSGSGTDFTLKISRVEAEDVGVYYCSQNTHVPPTFGQGTKVEIERTVAAPSVFIFPPSDEQLKSGTASVVCLLNNFYPREAKVQWKVDNALQSGNSQESVTEQDSKDSTYSLSSTLTLSKADYEKHKVYACEVTHQGLSSPVTKSFNRGEC
notes: mutation in one H chain only; also called He Ab S298_10E; S298E
B5: GpH7-A5/GpH7-B3 variant S298_20W/GpL16-k0 (antibody, human IgG1, kappa)
heavy 1: not shown
heavy 2: not shown
light: DIVMTQSPLSLPVTPGEPASISCQASESLVHSNRNTYLHWYLQKPGQSPQLLIYKVSNRFSGVPDRFSGSGSGTDFTLKISRVEAEDVGVYYCSQNTHVPPTFGQGTKVEIERTVAAPSVFIFPPSDEQLKSGTASVVCLLNNFYPREAKVQWKVDNALQSGNSQESVTEQDSKDSTYSLSSTLTLSKADYEKHKVYACEVTHQGLSSPVTKSFNRGEC
notes: mutation in one H chain only; also called He Ab S298_20W; S298W
B6: GpH7-A5/GpH7-B3 variant S324_19Q/GpL16-k0 (antibody, human IgG1, kappa)
heavy 1: not shown
heavy 2: not shown
light: DIVMTQSPLSLPVTPGEPASISCQASESLVHSNRNTYLHWYLQKPGQSPQLLIYKVSNRFSGVPDRFSGSGSGTDFTLKISRVEAEDVGVYYCSQNTHVPPTFGQGTKVEIERTVAAPSVFIFPPSDEQLKSGTASVVCLLNNFYPREAKVQWKVDNALQSGNSQESVTEQDSKDSTYSLSSTLTLSKADYEKHKVYACEVTHQGLSSPVTKSFNRGEC
notes: mutation in one H chain only; also called He Ab S324_19Q; S324Q
B7: GpH7-A5/GpH7-B3 variant S298_08L/GpL16-k0 (antibody, human IgG1, kappa)
heavy 1: not shown
heavy 2: not shown
light: DIVMTQSPLSLPVTPGEPASISCQASESLVHSNRNTYLHWYLQKPGQSPQLLIYKVSNRFSGVPDRFSGSGSGTDFTLKISRVEAEDVGVYYCSQNTHVPPTFGQGTKVEIERTVAAPSVFIFPPSDEQLKSGTASVVCLLNNFYPREAKVQWKVDNALQSGNSQESVTEQDSKDSTYSLSSTLTLSKADYEKHKVYACEVTHQGLSSPVTKSFNRGEC
notes: mutation in one H chain only; also called He Ab S298_08L; S298L
B8: GpH7-A5/GpH7-B3 variant S298_07I/GpL16-k0 (antibody, human IgG1, kappa)
heavy 1: not shown
heavy 2: not shown
light: DIVMTQSPLSLPVTPGEPASISCQASESLVHSNRNTYLHWYLQKPGQSPQLLIYKVSNRFSGVPDRFSGSGSGTDFTLKISRVEAEDVGVYYCSQNTHVPPTFGQGTKVEIERTVAAPSVFIFPPSDEQLKSGTASVVCLLNNFYPREAKVQWKVDNALQSGNSQESVTEQDSKDSTYSLSSTLTLSKADYEKHKVYACEVTHQGLSSPVTKSFNRGEC
notes: mutation in one H chain only; also called He Ab S298_07I; S298I
B9: GpH7-A5/GpH7-B3 variant S324_02A/GpL16-k0 (antibody, human IgG1, kappa)
heavy 1: not shown
heavy 2: not shown
light: DIVMTQSPLSLPVTPGEPASISCQASESLVHSNRNTYLHWYLQKPGQSPQLLIYKVSNRFSGVPDRFSGSGSGTDFTLKISRVEAEDVGVYYCSQNTHVPPTFGQGTKVEIERTVAAPSVFIFPPSDEQLKSGTASVVCLLNNFYPREAKVQWKVDNALQSGNSQESVTEQDSKDSTYSLSSTLTLSKADYEKHKVYACEVTHQGLSSPVTKSFNRGEC
notes: mutation in one H chain only; also called He Ab S324_02A; S324A
B10: GpH7-A5/GpH7-B3 variant S298_14T/GpL16-k0 (antibody, human IgG1, kappa)
heavy 1: not shown
heavy 2: not shown
light: DIVMTQSPLSLPVTPGEPASISCQASESLVHSNRNTYLHWYLQKPGQSPQLLIYKVSNRFSGVPDRFSGSGSGTDFTLKISRVEAEDVGVYYCSQNTHVPPTFGQGTKVEIERTVAAPSVFIFPPSDEQLKSGTASVVCLLNNFYPREAKVQWKVDNALQSGNSQESVTEQDSKDSTYSLSSTLTLSKADYEKHKVYACEVTHQGLSSPVTKSFNRGEC
notes: mutation in one H chain only; also called He Ab S298_14T; S298T
B11: GpH7-A5/GpH7-B3 variant S298_12R/GpL16-k0 (antibody, human IgG1, kappa)
heavy 1: not shown
heavy 2: not shown
light: DIVMTQSPLSLPVTPGEPASISCQASESLVHSNRNTYLHWYLQKPGQSPQLLIYKVSNRFSGVPDRFSGSGSGTDFTLKISRVEAEDVGVYYCSQNTHVPPTFGQGTKVEIERTVAAPSVFIFPPSDEQLKSGTASVVCLLNNFYPREAKVQWKVDNALQSGNSQESVTEQDSKDSTYSLSSTLTLSKADYEKHKVYACEVTHQGLSSPVTKSFNRGEC
notes: mutation in one H chain only; also called He Ab S298_12R; S298R

Target: T1, FcγRIa extracellular domain with C-terminal His tag (human, UniProt P12314 16-292)
T1 construct: extracellular domain; also called FcgRI; CD64; not shown: His tag at the C terminus
T1 sequence (P12314 16-292): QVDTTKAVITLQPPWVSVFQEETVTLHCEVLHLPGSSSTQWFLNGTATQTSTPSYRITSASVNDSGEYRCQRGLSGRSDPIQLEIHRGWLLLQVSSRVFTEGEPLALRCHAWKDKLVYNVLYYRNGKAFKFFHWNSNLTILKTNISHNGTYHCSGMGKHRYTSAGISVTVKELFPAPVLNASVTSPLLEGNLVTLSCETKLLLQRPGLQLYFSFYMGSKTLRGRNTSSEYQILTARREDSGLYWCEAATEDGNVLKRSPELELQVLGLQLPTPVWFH
Assay: SPR Biacore, relative FcγRIa binding vs GpH7-A5/GpH7-B3/GpL16-k0

| Binder | He/Con_1a |
| --- | --- |
| B1 | 109 % of HeCon Ab (=100) |
| B2 | 107 % of HeCon Ab (=100) |
| B3 | 114 % of HeCon Ab (=100) |
| B4 | 108 % of HeCon Ab (=100) |
| B5 | 104 % of HeCon Ab (=100) |
| B6 | 112 % of HeCon Ab (=100) |
| B7 | 107 % of HeCon Ab (=100) |
| B8 | 107 % of HeCon Ab (=100) |
| B9 | 103 % of HeCon Ab (=100) |
| B10 | 107 % of HeCon Ab (=100) |
| B11 | 109 % of HeCon Ab (=100) |
